In paper PMC1905944:
Several values for one entry are separate records, joined by “and”; a condition that tells them apart may be missing. Equal entries are not always repeated.

Legend:
[1] = molecular target: full-length HIV-1 WT integrase (HIV-1); assay: cross-linking + SEC; covalent IN oligomers made by chemical cross-linking and separated by size-exclusion chromatography, as previously described [10]; dimers and tetramers recovered
[2] = molecular target: full-length HIV-1 WT integrase (HIV-1); assay: cross-linking; IN (5 pmol, 0.5 uM) with the 5'-radiolabelled 38-bp PalA/PalB duplex (1 pmol, 0.1 uM; HIV-1 LTR-LTR junction) and AHDAP 300 uM, 0.05% NP40, 10 mM DTT, 20 mM HEPES pH 7.5, 37 C in the dark, 0 to 60 min; SDS-PAGE and autoradiography; IN oligomers seen bound to DNA

**Q.** full-length HIV-1 WT integrase (enzyme) was tested. Which stoichiometry N [1] did it give?
**A.** 2 and 4

**Q.** What about the stoichiometry N [2] of the same substance?
**A.** 2 and 4
